Reference: patent publication US20090023646A1, “GHRH analogues” (Centre Hospitalier de L'Universite de Montreal (CHUM), priority 2002, published 2009)
Read-outs that look alike come from different tables or passages of the source. Square brackets hold non-standard residues; d marks the D form. Ends that are not written are not given here.

What was measured:
rat GHRH receptor = biological target: T1, rat GHRH receptor (rat, UniProt Q02644 23-464); experiment: competition with [125I-Tyr10]hGHRH(1-44)-NH2, rat anterior pituitary membrane preparations
T1 construct: whole, on cells; Native tissue membrane preparation; In the in vivo study it is the receptor on rat pituitary somatotrophs; also called rat pituitary GHRH receptor
T1 sequence (looked up): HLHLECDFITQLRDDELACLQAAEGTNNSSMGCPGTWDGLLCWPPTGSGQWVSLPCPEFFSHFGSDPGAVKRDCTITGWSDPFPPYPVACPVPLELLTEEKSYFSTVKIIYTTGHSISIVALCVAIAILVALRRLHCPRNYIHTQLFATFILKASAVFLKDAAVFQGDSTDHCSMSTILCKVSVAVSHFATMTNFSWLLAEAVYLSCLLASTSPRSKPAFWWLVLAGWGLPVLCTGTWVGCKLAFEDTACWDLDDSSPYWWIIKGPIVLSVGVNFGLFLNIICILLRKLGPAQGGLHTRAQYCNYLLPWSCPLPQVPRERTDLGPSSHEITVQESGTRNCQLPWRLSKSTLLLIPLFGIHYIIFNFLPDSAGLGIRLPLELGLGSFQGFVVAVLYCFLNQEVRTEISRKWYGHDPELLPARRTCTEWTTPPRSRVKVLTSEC

human GHRH receptor [1] = biological target: T2, human GHRH receptor (human, UniProt Q02643 23-423); experiment: competition with [125I-Tyr10]hGHRH(1-44)NH2, BHK cell membrane preparations expressing the human GHRH receptor
T2 construct: whole, on cells; Assayed in BHK cell membrane preparations (25 ug protein per tube), not on intact cells; also called hGHRH-R; hGHRH receptor
T2 sequence (looked up): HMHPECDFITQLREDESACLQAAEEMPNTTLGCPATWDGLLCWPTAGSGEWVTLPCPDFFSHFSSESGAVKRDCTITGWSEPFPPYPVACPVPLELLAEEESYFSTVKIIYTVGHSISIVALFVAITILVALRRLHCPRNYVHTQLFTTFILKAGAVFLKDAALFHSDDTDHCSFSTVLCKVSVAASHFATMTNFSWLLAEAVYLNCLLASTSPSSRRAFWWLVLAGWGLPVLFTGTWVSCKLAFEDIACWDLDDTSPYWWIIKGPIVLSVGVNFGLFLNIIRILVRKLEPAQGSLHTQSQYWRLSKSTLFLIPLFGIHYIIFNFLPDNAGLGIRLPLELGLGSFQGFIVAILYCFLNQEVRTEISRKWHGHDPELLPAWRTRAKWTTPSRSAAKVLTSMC
Protocol: (§1) Incubation was carried out at equilibrium (23° C., 60 min) and stopped by centrifugation (12,000 g, 5 min, at 4° C.). The radioactivity content in pellets was determined by gamma counting. […] The Ligand computerized program was used to analyze competition curves of GHRH analogues reported in Tables 2 and 3 and to determine their IC₅₀ (Gaudreau P. et al. (1992) J Med Chem, 35: 1864-1869).
(§2) IC₅₀ is the concentration of peptide inhibiting 50% of ¹²⁵I-GHRH specific binding as determined by the LIGAND program for analysis of competition curves.

human GHRH receptor [2] = biological target: T2, human GHRH receptor; experiment: as above; remark: listed apart in the source
Protocol: as §1, §2

human GHRH receptor [3] = biological target: T2, human GHRH receptor; experiment: competition with [125I-Tyr10]hGHRH(1-44)NH2, BHK cell membrane preparations expressing the human GHRH receptor (reference peptide; its IC50 is not given)
Protocol: as §1, §2

B1: [D-Ala2, Ala8, Ala15, Lys22] hGHRH(1-29)-NH2 (peptide)
peptide: Y[dA]DAIFTASYRKVLAQLSARKKLQDIMSR-NH2
modifications: N-terminus assumed
SMILES: CC[C@H](C)[C@H](NC(=O)[C@H](C)NC(=O)[C@H](CC(=O)O)NC(=O)[C@@H](C)NC(=O)[C@@H](N)Cc1ccc(O)cc1)C(=O)N[C@@H](Cc1ccccc1)C(=O)N[C@H](C(=O)N[C@@H](C)C(=O)N[C@@H](CO)C(=O)N[C@@H](Cc1ccc(O)cc1)C(=O)N[C@@H](CCCNC(=N)N)C(=O)N[C@@H](CCCCN)C(=O)N[C@H](C(=O)N[C@@H](CC(C)C)C(=O)N[C@@H](C)C(=O)N[C@@H](CCC(N)=O)C(=O)N[C@@H](CC(C)C)C(=O)N[C@@H](CO)C(=O)N[C@@H](C)C(=O)N[C@@H](CCCNC(=N)N)C(=O)N[C@@H](CCCCN)C(=O)N[C@@H](CCCCN)C(=O)N[C@@H](CC(C)C)C(=O)N[C@@H](CCC(N)=O)C(=O)N[C@@H](CC(=O)O)C(=O)N[C@H](C(=O)N[C@@H](CCSC)C(=O)N[C@@H](CO)C(=O)N[C@@H](CCCNC(=N)N)C(N)=O)[C@@H](C)CC)C(C)C)[C@@H](C)O
notes: Synthetic 29-residue amide; also called GHRH analogue #1; No. 1
B1 was tested, and the “relative binding affinity in rat anterior pituitary (compared to hGHRH(1-29)-NH2)” value (rat GHRH receptor) was 13.3 fold against hGHRH(1-29)-NH2, the IC50 (human GHRH receptor [1]) was 0.033 nM and the “relative binding affinity (R1) in comparison with hGHRH(1-29)NH2” value (shortened to “relative binding affinity (R1)”) (human GHRH receptor [1]) was 499 ratio IC50 of hGHRH(1-29)-NH2 / IC50 analogue.

B2: [D-Ala2, D-Tyr10, Lys22] hGHRH(1-29)-NH2 (peptide)
peptide: Y[dA]DAIFTNS[dY]RKVLGQLSARKKLQDIMSR-NH2
modifications: N-terminus assumed
SMILES: CC[C@H](C)[C@H](NC(=O)[C@H](C)NC(=O)[C@H](CC(=O)O)NC(=O)[C@@H](C)NC(=O)[C@@H](N)Cc1ccc(O)cc1)C(=O)N[C@@H](Cc1ccccc1)C(=O)N[C@H](C(=O)N[C@@H](CC(N)=O)C(=O)N[C@@H](CO)C(=O)N[C@H](Cc1ccc(O)cc1)C(=O)N[C@@H](CCCNC(=N)N)C(=O)N[C@@H](CCCCN)C(=O)N[C@H](C(=O)N[C@@H](CC(C)C)C(=O)NCC(=O)N[C@@H](CCC(N)=O)C(=O)N[C@@H](CC(C)C)C(=O)N[C@@H](CO)C(=O)N[C@@H](C)C(=O)N[C@@H](CCCNC(=N)N)C(=O)N[C@@H](CCCCN)C(=O)N[C@@H](CCCCN)C(=O)N[C@@H](CC(C)C)C(=O)N[C@@H](CCC(N)=O)C(=O)N[C@@H](CC(=O)O)C(=O)N[C@H](C(=O)N[C@@H](CCSC)C(=O)N[C@@H](CO)C(=O)N[C@@H](CCCNC(=N)N)C(N)=O)[C@@H](C)CC)C(C)C)[C@@H](C)O
notes: Synthetic 29-residue amide; also called GHRH analogue #3; No. 3
B2 was tested, and the “relative binding affinity in rat anterior pituitary (compared to hGHRH(1-29)-NH2)” value (rat GHRH receptor) was 4.9 fold against hGHRH(1-29)-NH2, the IC50 (human GHRH receptor [1]) was 0.0063 nM and the “relative binding affinity (R1)” value (human GHRH receptor [1]) was 239 ratio IC50 of hGHRH(1-29)-NH2 / IC50 analogue.

B3: [Ala8, Ala9, Ala15, Ala22] hGHRH(1-29)-NH2 (peptide)
peptide: YADAIFTAAYRKVLAQLSARKALQDIMSR-NH2
notes: Synthetic 29-residue amide; also called GHRH analogue #2; No. 2
In the case of B3, the “relative binding affinity in rat anterior pituitary (compared to hGHRH(1-29)-NH2)” value (rat GHRH receptor) is reported as 7.74 fold against hGHRH(1-29)-NH2, the IC50 (human GHRH receptor [1]) is reported as 0.77 nM and the “relative binding affinity (R1)” value (human GHRH receptor [1]) is reported as 3.7 ratio IC50 of hGHRH(1-29)-NH2 / IC50 analogue.

B4: [D-Ala2, D-Tyr10, D-Ala15, Lys22] hGHRH(1-29)-NH2 (peptide)
peptide: Y[dA]DAIFTNS[dY]RKVL[dA]QLSARKKLQDIMSR-NH2
modifications: also: acetate salt
notes: also called GHRH analogue #5; human GHRH analogue #5
For B4, the “relative binding affinity in rat anterior pituitary (compared to hGHRH(1-29)-NH2)” value (rat GHRH receptor) was 1.04 fold against hGHRH(1-29)-NH2, the IC50 (human GHRH receptor [2]) was 0.0012 nM and the IC50 (human GHRH receptor [1]) was 0.006 nM. For the same binder, the “relative binding affinity (R1)” value (human GHRH receptor [1]) was 939 ratio IC50 of hGHRH(1-29)-NH2 / IC50 analogue.

B5: human GHRH(1-29)NH2 (peptide)
peptide: YADAIFTNSYRKVLGQLSARKLLQDIMSR-NH2
notes: also called hGHRH(1-29)NH2; hGHRH(1-29)-NH2
B5: binds (human GHRH receptor [3]).

B6: [D-Ala2, Ala8, D-Tyr10, Ala15, D-Lys21, Lys22] hGHRH(1-29)-NH2 (peptide)
peptide: Y[dA]DAIFTAS[dY]RKVLAQLSAR[dK]KLQDIMSR-NH2
modifications: N-terminus assumed
SMILES: CC[C@H](C)[C@H](NC(=O)[C@H](C)NC(=O)[C@H](CC(=O)O)NC(=O)[C@@H](C)NC(=O)[C@@H](N)Cc1ccc(O)cc1)C(=O)N[C@@H](Cc1ccccc1)C(=O)N[C@H](C(=O)N[C@@H](C)C(=O)N[C@@H](CO)C(=O)N[C@H](Cc1ccc(O)cc1)C(=O)N[C@@H](CCCNC(=N)N)C(=O)N[C@@H](CCCCN)C(=O)N[C@H](C(=O)N[C@@H](CC(C)C)C(=O)N[C@@H](C)C(=O)N[C@@H](CCC(N)=O)C(=O)N[C@@H](CC(C)C)C(=O)N[C@@H](CO)C(=O)N[C@@H](C)C(=O)N[C@@H](CCCNC(=N)N)C(=O)N[C@H](CCCCN)C(=O)N[C@@H](CCCCN)C(=O)N[C@@H](CC(C)C)C(=O)N[C@@H](CCC(N)=O)C(=O)N[C@@H](CC(=O)O)C(=O)N[C@H](C(=O)N[C@@H](CCSC)C(=O)N[C@@H](CO)C(=O)N[C@@H](CCCNC(=N)N)C(N)=O)[C@@H](C)CC)C(C)C)[C@@H](C)O
notes: Synthetic 29-residue amide; also called GHRH analogue #4; No. 4
For B6, the “relative binding affinity in rat anterior pituitary (compared to hGHRH(1-29)-NH2)” value (rat GHRH receptor) was 5 fold against hGHRH(1-29)-NH2, the IC50 (human GHRH receptor [1]) was 37 nM and the “relative binding affinity (R1)” value (human GHRH receptor [1]) was 0.05 ratio IC50 of hGHRH(1-29)-NH2 / IC50 analogue.
